Results as given in patent US20110151454.

Molecular target: HA-SKP2 phosphorylated in vitro by AKT (32P-SKP2) (UniProt Q13309)
Sequence (Q13309 whole entry, looked up): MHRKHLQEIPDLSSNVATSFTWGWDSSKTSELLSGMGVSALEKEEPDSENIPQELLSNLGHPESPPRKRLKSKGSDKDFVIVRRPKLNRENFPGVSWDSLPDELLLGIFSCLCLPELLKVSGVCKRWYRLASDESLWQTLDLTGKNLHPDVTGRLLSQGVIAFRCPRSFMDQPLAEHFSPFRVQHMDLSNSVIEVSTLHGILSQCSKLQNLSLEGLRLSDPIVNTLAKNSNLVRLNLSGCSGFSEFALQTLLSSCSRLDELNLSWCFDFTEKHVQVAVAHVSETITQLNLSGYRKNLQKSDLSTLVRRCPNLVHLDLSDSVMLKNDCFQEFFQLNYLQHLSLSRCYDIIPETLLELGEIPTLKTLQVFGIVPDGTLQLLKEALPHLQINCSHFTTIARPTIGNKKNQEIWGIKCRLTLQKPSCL

## flag-PTEN
  removal of 32P from AKT-phosphorylated SKP2: neither PTEN nor PPM1H exhibited any evidence of phosphatase activity on SKP2
